The results in this text go back to paper doi:10.1101/2020.07.24.219956.

Assay [1] addresses Human neutrophil-derived myeloperoxidase (human) (UniProt P05164). Briefly: native MS.
The target is the same in assay [2]. Kind of assay: mass photometry.

As a reminder, the stoichiometry N is the number of molecules, sites or subunits per partner or assembly. The Kd is the concentration at which binding is half-saturated. In turn, “Human neutrophil-derived myeloperoxidase (from UniProt P05164 279-745; P05164 279-745) (enzyme)” displayed a stoichiometry N in assay [1] of 2. In assay [2], the Kd turned out to be 0.05 nM, the percent diprotomer (ααββ) stood at 93%, the percent monoprotomer (αβ) came out at 7% and the stoichiometry N worked out at 2.
